Assay results published in paper PMC7035355.

Molecular target: FBW7 (UniProt Q969H0)
Test: co-immunoprecipitation, immunoblot
Settings: reference: wild type Mcl-1; sites S159

binding against the reference: weaker
Substance: Mcl-1 (from UniProt Q07820) S159A
